Laboratory results taken from the supplement of paper PMC5998384.

Experiments:
HeLa Kyoto [1] = assay: thermal stability score vs G1/S (z-score of summed log2 fold changes over temperatures); higher = more thermally stable than in G1/S
HeLa Kyoto [2] = assay: melting temperature (median over replicates), in situ; higher = more thermally stable
HeLa Kyoto [3] = assay: solubility in G1/S (NP-40 vs SDS abundance) (log2 ratio); higher = more soluble; settings: cell cycle stage: G1/S
HeLa Kyoto [4] = assay: solubility change mitosis vs G1/S (difference of NP-40 vs SDS log2 ratios) (log2 ratio difference); higher = more soluble in mitosis
[5] = cell cycle stage: early G1 (4.5 h after nocodazole release)
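Wherever melting temperature (median over replicates), in situ is given: HeLa Kyoto cells synchronized by double thymidine or nocodazole block, proteins quantified by TMT10plex mass spectrometry, three independent biological replicates.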
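Wherever solubility change mitosis vs G1/S (difference of NP-40 vs SDS log2 ratios) is given: synchronized HeLa Kyoto cells (double thymidine block for G1/S, nocodazole release for mitosis), protein amounts in NP-40 versus SDS lysates quantified by mass spectrometry, three biological replicates.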
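Wherever solubility in G1/S (NP-40 vs SDS abundance) is given: HeLa Kyoto cells arrested at G1/S by double thymidine block, proteins quantified by TMT10plex mass spectrometry in mild NP-40 versus SDS extracts, three biological replicates.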
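Wherever thermal stability score vs G1/S (z-score of summed log2 fold changes over temperatures) is given: synchronized HeLa Kyoto cells, proteins quantified by TMT10plex mass spectrometry, three biological replicates, mitosis taken 0.5 h after nocodazole release, G1/S directly after double thymidine block.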

Chain of PNO1 (chain, as listed by the source): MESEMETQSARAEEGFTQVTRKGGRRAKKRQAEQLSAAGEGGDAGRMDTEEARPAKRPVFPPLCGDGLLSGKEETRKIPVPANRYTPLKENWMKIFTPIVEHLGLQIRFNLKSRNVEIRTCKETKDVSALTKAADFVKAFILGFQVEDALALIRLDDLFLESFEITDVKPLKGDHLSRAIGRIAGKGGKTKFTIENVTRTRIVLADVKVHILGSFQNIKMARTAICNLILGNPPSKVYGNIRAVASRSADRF

Substance | thermal stability score (HeLa Kyoto [1]; [5]) | thermal stability score (HeLa Kyoto [1]; cell cycle stage: mitosis) | melting temperature (HeLa Kyoto [2]; cell cycle stage: G1/S) [°C] | melting temperature (HeLa Kyoto [2]; cell cycle stage: mitosis) [°C] | solubility in G1/S (log2) (HeLa Kyoto [3]) | solubility change mitosis (log2) (HeLa Kyoto [4])
MPDYLGADQRKTKEDEKDDKPIRALDEGDIALLKTYGQSTYSRQIKQVEDDIQQLLKKINELTGIKESDTGLAPPALWDLAADKQTLQSEQPLQVARCTKIINADSEDPKYIINVKQFAKFVVDLSDQVAPTDIEEGMRVGVDRNKYQIHIPLPPKIDPTVTMMQVEEKPDVTYSDVGGCKEQIEKLREVVETPLLHPERFVNLGIEPPKGVLLFGPPGTGKTLCARAVANRTDACFIRVIGSELVQKYVGEGARMVRELFEMARTKKACLIFFDEIDAIGGARFDDGAGGDNEVQRTMLELINQLDGFDPRGNIKVLMATNRPDTLDPALMRPGRLDRKIEFSLPDLEGRTHIFKIHARSMSVERDIRFELLARLCPNSTGAEIRSVCTEAGMFAIRARRKIATEKDFLEAVNKVIKSYAKFSATPRYMTYN [PSMC2] | 1.24 | 0.521 | 53.2 | 52 | 0.358 | -0.143
MSGEDEQQEQTIAEDLVVTKYKMGGDIANRVLRSLVEASSSGVSVLSLCEKGDAMIMEETGKIFKKEKEMKKGIAFPTSISVNNCVCHFSPLKSDQDYILKEGDLVKIDLGVHVDGFIANVAHTFVVDVAQGTQVTGRKADVIKAAHLCAEAALRLVKPGNQNTQVTEAWNKVAHSFNCTPIEGMLSHQLKQHVIDGEKTIIQNPTDQQKKDHEKAEFEVHEVYAVDVLVSSGEGKAKDAGQRTTIYKRDPSKQYGLKMKTSRAFFSEVERRFDAMPFTLRAFEDEKKARMGVVECAKHELLQPFNVLYEKEGEFVAQFKFTVLLMPNGPMRITSGPFEPDLYKSEMEVQDAELKALLQSSASRKTQKKKKKKASKTAENATSGETLEENEAGD [PA2G4] | -0.392 | 2 | 51.5 | 52.1 | -0.0146 | -0.108
MSQGDSNPAAIPHAAEDIQGDDRWMSQHNRFVLDCKDKEPDVLFVGDSMVQLMQQYEIWRELFSPLHALNFGIGGDTTRHVLWRLKNGELENIKPKVIVVWVGTNNHENTAEEVAGGIEAIVQLINTRQPQAKIIVLGLLPRGEKPNPLRQKNAKVNQLLKVSLPKLANVQLLDTDGGFVHSDGAISCHDMFDFLHLTGGGYAKICKPLHELIMQLLEETPEEKQTTIA [PAFAH1B2] | -0.13 | -0.102 | 49.5 | 51 | 0.628 | -0.079
MFLVNSFLKGGGGGGGGGGGLGGGLGNVLGGLISGAGGGGGGGGGGGGGGGGGGGGTAMRILGGVISAISEAAAQYNPEPPPPRTHYSNIEANESEEVRQFRRLFAQLAGDDMEVSATELMNILNKVVTRHPDLKTDGFGIDTCRSMVAVMDSDTTGKLGFEEFKYLWNNIKRWQAIYKQFDTDRSGTICSSELPGAFEAAGFHLNEHLYNMIIRRYSDESGNMDFDNFISCLVRLDAMFRAFKSLDKDGTGQIQVNIQEWLQLTMYS [CAPNS1] | 1.02 | 1.65 | 55.4 | 55 | 0.395 | -0.0652
TACC2 | -1.3 | 1.83 | 54.3 | 53.8 | 0.219 | -0.0921
MIPRKRYGSKNTDQGVYLGLSKTQVLSPATAGSSSSDIAPLPPPVTLVPPPPDTMSCRDRTQEFLSACKSLQTRQNGIQTNKPALRAVRQRSEFTLMAKRIGKDLSNTFAKLEKLTILAKRKSLFDDKAVEIEELTYIIKQDINSLNKQIAQLQDFVRAKGSQSGRHLQTHSNTIVVSLQSKLASMSNDFKSVLEVRTENLKQQRSRREQFSRAPVSALPLAPNHLGGGAVVLGAESHASKDVAIDMMDSRTSQQLQLIDEQDSYIQSRADTMQNIESTIVELGSIFQQLAHMVKEQEETIQRIDENVLGAQLDVEAAHSEILKYFQSVTSNRWLMVKIFLILIVFFIIFVVFLA [STX5] | 0.862 | 1.55 | 50 | 49.9 | 0.558 | -0.103
MSQVKSSYSYDAPSDFINFSSLDDEGDTQNIDSWFEEKANLENKLLGKNGTGGLFQGKTPLRKANLQQAIVTPLKPVDNTYYKEAEKENLVEQSIPSNACSSLEVEAAISRKTPAQPQRRSLRLSAQKDLEQKEKHHVKMKAKRCATPVIIDEILPSKKMKVSNNKKKPEEEGSAHQDTAEKNASSPEKAKGRHTVPCMPPAKQKFLKSTEEQELEKSMKMQQEVVEMRKKNEEFKKLALAGIGQPVKKSVSQVTKSVDFHFRTDERIKQHPKNQEEYKEVNFTSELRKHPSSPARVTKGCTIVKPFNLSQGKKRTFDETVSTYVPLAQQVEDFHKRTPNRYHLRSKKDDINLLPSKSSVTKICRDPQTPVLQTKHRARAVTCKSTAELEAEELEKLQQYKFKARELDPRILEGGPILPKKPPVKPPTEPIGFDLEIEKRIQERESKKKTEDEHFEFHSRPCPTKILEDVVGVPEKKVLPITVPKSPAFALKNRIRMPTKEDEEEDEPVVIKAQPVPHYGVPFKPQIPEARTVEICPFSFDSRDKERQLQKEKKIKELQKGEVPKFKALPLPHFDTINLPEKKVKNVTQIEPFCLETDRRGALKAQTWKHQLEEELRQQKEAACFKARPNTVISQEPFVPKKEKKSVAEGLSGSLVQEPFQLATEKRAKERQELEKRMAEVEAQKAQQLEEARLQEEEQKKEELARLRRELVHKANPIRKYQGLEIKSSDQPLTVPVSPKFSTRFHC [TPX2] | -0.935 | -2.05 | 53.8 | 53.1 | -0.167 | 0.425
MAASGEPQRQWQEEVAAVVVVGSCMTDLVSLTSRLPKTGETIHGHKFFIGFGGKGANQCVQAARLGAMTSMVCKVGKDSFGNDYIENLKQNDISTEFTYQTKDAATGTASIIVNNEGQNIIVIVAGANLLLNTEDLRAAANVISRAKVMVCQLEITPATSLEALTMARRSGVKTLFNPAPAIADLDPQFYTLSDVFCCNESEAEILTGLTVGSAADAGEAALVLLKRGCQVVIITLGAEGCVVLSQTEPEPKHIPTEKVKAVDTTGAGDSFVGALAFYLAYYPNLSLEDMLNRSNFIAAVSVQAAGTQSSYPYKKDLPLTLF [RBKS] | -2.59 | -2.4 | 57.9 | 54.8 | 0.229 | -0.0848
MATRVEEAARGRGGGAEEATEAGRGGRRRSPRQKFEIGTMEEAGICGLGVKADMLCNSQSNDILQHQGSNCGGTSNKHSLEEDEGSDFITENRNLVSPAYCTQESREEIPGGEARTDPPDGQQDSECNRNKEKTLGKEVLLLMQALNTLSTPEEKLAALCKKYADLLEESRSVQKQMKILQKKQAQIVKEKVHLQSEHSKAILARSKLESLCRELQRHNKTLKEENMQQAREEEERRKEATAHFQITLNEIQAQLEQHDIHNAKLRQENIELGEKLKKLIEQYALREEHIDKVFKHKELQQQLVDAKLQQTTQLIKEADEKHQREREFLLKEATESRHKYEQMKQQEVQLKQQLSLYMDKFEEFQTTMAKSNELFTTFRQEMEKMTKKIKKLEKETIIWRTKWENNNKALLQMAEEKTVRDKEYKALQIKLERLEKLCRALQTERNELNEKVEVLKEQVSIKAAIKAANRDLATPVMQPCTALDSHKELNTSSKRALGAHLEAEPKSQRSAVQKPPSTGSAPAIESVD [TXLNG] | -0.882 | -2.17 | 52.5 | 52.5 | 0.584 | 0.0514
MALPFRKDLEKYKDLDEDELLGNLSETELKQLETVLDDLDPENALLPAGFRQKNQTSKSTTGPFDREHLLSYLEKEALEHKDREDYVPYTGEKKGKIFIPKQKPVQTFTEEKVSLDPELEEALTSASDTELCDLAAILGMHNLITNTKFCNIMGSSNGVDQEHFSNVVKGEKILPVFDEPPNPTNVEESLKRTKENDAHLVEVNLNNIKNIPIPTLKDFAKALETNTHVKCFSLAATRSNDPVATAFAEMLKVNKTLKSLNVESNFITGVGILALIDALRDNETLAELKIDNQRQQLGTAVELEMAKMLEENTNILKFGYQFTQQGPRTRAANAITKNNDLVRKRRVEGDHQ [TMOD3] | -0.553 | 0.573 | 49.4 | 50.5 | 0.293 | 0.296
PNO1 | 0.178 | 0.628 | 50.3 | 50 | -0.779 | 0.449
MPRRKKKVKEVSESRNLEKKDVETTSSVSVKRKRRLEDAFIVISDSDGEEPKEENGLQKTKTKQSNRAKCLAKRKIAQMTEEEQFALALKMSEQEAREVNSQEEEEEELLRKAIAESLNSCRPSDASATRSRPLATGPSSQSHQEKTTDSGLTEGIWQLVPPSLFKGSHISQGNEAEEREEPWDHTEKTEEEPVSGSSGSWDQSSQPVFENVNVKSFDRCTGHSAEHTQCGKPQESTGRGSAFLKAVQGSGDTSRHCLPTLADAKGLQDTGGTVNYFWGIPFCPDGVDPNQYTKVILCQLEVYQKSLKMAQRQLLNKKGFGEPVLPRPPSLIQNECGQGEQASEKNECISEDMGDEDKEERQESRASDWHSKTKDFQESSIKSLKEKLLLEEEPTTSHGQSSQGIVEETSEEGNSVPASQSVAALTSKRSLVLMPESSAEEITVCPETQLSSSETFDLEREVSPGSRDILDGVRIIMADKEVGNKEDAEKEVAISTFSSSNQVSCPLCDQCFPPTKIERHAMYCNGLMEEDTVLTRRQKEAKTKSDSGTAAQTSLDIDKNEKCYLCKSLVPFREYQCHVDSCLQLAKADQGDGPEGSGRACSTVEGKWQQRLKNPKEKGHSEGRLLSFLEQSEHKTSDADIKSSETGAFRVPSPGMEEAGCSREMQSSFTRRDLNESPVKSFVSISEATDCLVDFKKQVTVQPGSRTRTKAGRGRRRKF [UIMC1] | 1.12 | 1.21 | 51.5 | 52.5 | -0.219 | 0.107
MADDIDIEAMLEAPYKKDENKLSSANGHEERSKKRKKSKSRSRSHERKRSKSKERKRSRDRERKKSKSRERKRSRSKERRRSRSRSRDRRFRGRYRSPYSGPKFNSAIRGKIGLPHSIKLSRRRSRSKSPFRKDKSPVREPIDNLTPEERDARTVFCMQLAARIRPRDLEEFFSTVGKVRDVRMISDRNSRRSKGIAYVEFVDVSSVPLAIGLTGQRVLGVPIIVQASQAEKNRAAAMANNLQKGSAGPMRLYVGSLHFNITEDMLRGIFEPFGRIESIQLMMDSETGRSKGYGFITFSDSECAKKALEQLNGFELAGRPMKVGHVTERTDASSASSFLDSDELERTGIDLGTTGRLQLMARLAEGTGLQIPPAAQQALQMSGSLAFGAVAEFSFVIDLQTRLSQQTEASALAAAASVQPLATQCFQLSNMFNPQTEEEVGWDTEIKDDVIEECNKHGGVIHIYVDKNSAQGNVYVKCPSIAAAIAAVNALHGRWFAGKMITAAYVPLPTYHNLFPDSMTATQLLVPSRR [RBM39] | 1.15 | 5.82 | 47.2 | 49.3 | -1.07 | 0.531
MATATPVPPRMGSRAGGPTTPLSPTRLSRLQEKEELRELNDRLAVYIDKVRSLETENSALQLQVTEREEVRGRELTGLKALYETELADARRALDDTARERAKLQIELGKCKAEHDQLLLNYAKKESDLNGAQIKLREYEAALNSKDAALATALGDKKSLEGDLEDLKDQIAQLEASLAAAKKQLADETLLKVDLENRCQSLTEDLEFRKSMYEEEINETRRKHETRLVEVDSGRQIEYEYKLAQALHEMREQHDAQVRLYKEELEQTYHAKLENARLSSEMNTSTVNSAREELMESRMRIESLSSQLSNLQKESRACLERIQELEDLLAKEKDNSRRMLTDKEREMAEIRDQMQQQLNDYEQLLDVKLALDMEISAYRKLLEGEEERLKLSPSPSSRVTVSRASSSRSVRTTRGKRKRVDVEESEASSSVSISHSASATGNVCIEEIDVDGKFIRLKNTSEQDQPMGGWEMIRKIGDTSVSYKYTSRYVLKAGQTVTIWAANAGVTASPPTDLIWKNQNSWGTGEDVKVILKNSQGEEVAQRSTVFKTTIPEEEEEEEEAAGVVVEEELFHQQGTPRASNRSCAIM [LMNB1] | -12 | -7.18 | 51.1 | 50.1 | -1.97 | 1.92
